Source: paper PMC6885550 (Journal of molecular biology, 2019)
Where two headings read alike, the source gives them in different places. No end group written: not given here.

B1: YFP-phospholamban (PLB) (natural protein, UniProt P26678 1-52, looked up)
chain: {YFP}-MEKVQYLTRSAIRRASTIEMPQQARQKLQNLFINFCLILICLLLICIIVMLL
modifications: cysteine pairing not given here
B2: YFP-myoregulin (MLN) (natural protein, UniProt P0DMT0 1-46, looked up)
chain: MTGKNWILISTTTPKSLEDEIVGRLLKILFVIFVDLISIIYVVITS
B3: YFP-endoregulin (ELN) (natural protein, UniProt P0DI80 1-62, looked up)
chain: MDQLVFKETIWNDAFWQNPWDQGGLAVIILFITAVLLLILFAIVFGLLTSTENTQCEAGEEE
B4: YFP-ALN (another-regulin) (natural protein, UniProt Q8WVX3 1-66, looked up)
chain: MEVDAPGVDGRDGLRERRGFSEGGRQNFDVRPQSGANGLPKHSYWLDLWLFILFDVVVFLFVYFLP

Tests used:
FRET or BRET [1] = molecular target: the molecule itself; test: FRET or BRET
FRET or BRET [2] = molecular target: the molecule itself; test: FRET or BRET; remark: listed apart in the source

Protein	stoichiometry N (FRET or BRET [1])	stoichiometry N (FRET or BRET [2])
B1	2	> 2
B2	2	> 2
B3	2	> 2
B4	2	> 2
